Publication PMC2430334

Biological target: T1, rOxyR (Porphyromonas gingivalis 33277?) (UniProt B2RHP2)
T1 sequence: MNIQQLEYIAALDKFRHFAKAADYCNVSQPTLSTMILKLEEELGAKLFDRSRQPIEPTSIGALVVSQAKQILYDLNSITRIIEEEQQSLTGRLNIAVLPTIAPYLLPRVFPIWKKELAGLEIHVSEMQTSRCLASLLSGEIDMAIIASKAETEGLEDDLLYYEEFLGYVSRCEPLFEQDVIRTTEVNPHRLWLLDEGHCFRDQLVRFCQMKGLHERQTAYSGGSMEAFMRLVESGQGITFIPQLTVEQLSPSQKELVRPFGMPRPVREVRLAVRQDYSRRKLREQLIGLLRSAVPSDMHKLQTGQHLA
Test: EMSA

Sequence | binding
CGTCTTACCGGCTTCCCTATAGCAAAGGAAAGCATTTTTTTCTACTAAAAATTAATTCTAACAATATTCTGCTGTCTTCTACGTGTTTATACGCAGAAAAACGAAAAAAAACCGCACTACTCAATAAAAAAAACGCGATATTGACCCTCGCGAGAG (double strand) [mfa1 promoter region] | no binding
CTTTTCGCCCGAAGGTTTTATCTTCCGGCCGGAGCTTTCGGATGAGATCAACTACCTTTTCGTCATGGAATGAATCGGTTTTTACGACCAAGATTCGAACCTTTTTCCGTTCATCATGTTCTTATAATGATTAAAAAGTTGTCGGTGTCGGTTTTACACTGCTCCGATACAAATTATTAAAAGACTTAATTACAATAAAAATCAGACGTT (double strand) [sod promoter region] | binds
